Source: patent US20200085917A1
One block for each substance: values may come before it.

Experiments:
Assay in all cases: GST pull-down, LC-MS/MS
[1] = target: T1, Acsl6_IPI:IPI00123390.8 (mouse) (UniProt Q91WC3)
T1 sequence (looked up): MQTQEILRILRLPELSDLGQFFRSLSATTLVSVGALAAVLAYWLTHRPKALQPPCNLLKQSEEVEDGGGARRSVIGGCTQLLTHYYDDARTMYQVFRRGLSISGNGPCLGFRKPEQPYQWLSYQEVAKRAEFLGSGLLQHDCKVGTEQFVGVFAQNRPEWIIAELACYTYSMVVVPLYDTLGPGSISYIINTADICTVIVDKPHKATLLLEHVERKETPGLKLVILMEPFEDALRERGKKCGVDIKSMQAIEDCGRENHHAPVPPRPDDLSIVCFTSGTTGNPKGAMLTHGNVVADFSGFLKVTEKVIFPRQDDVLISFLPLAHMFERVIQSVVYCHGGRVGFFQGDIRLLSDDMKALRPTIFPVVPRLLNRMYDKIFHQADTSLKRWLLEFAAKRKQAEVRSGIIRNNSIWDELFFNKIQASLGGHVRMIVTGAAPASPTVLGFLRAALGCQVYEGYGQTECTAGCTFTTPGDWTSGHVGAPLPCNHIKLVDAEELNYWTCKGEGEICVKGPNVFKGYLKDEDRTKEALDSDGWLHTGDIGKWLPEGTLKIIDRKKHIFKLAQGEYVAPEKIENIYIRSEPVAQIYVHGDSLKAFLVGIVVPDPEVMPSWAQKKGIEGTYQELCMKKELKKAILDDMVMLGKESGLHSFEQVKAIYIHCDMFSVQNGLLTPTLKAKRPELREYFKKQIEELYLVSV

[2] = target: Atp1a1_IPI:IPI00311682.5 (mouse) (UniProt Q8VDN2)
[3] = target: Atp1a3_IPI:IPI00122048.2 (mouse) (UniProt Q6PIC6)
[4] = target: T2, C1qbp_IPI:IPI00132799.4 (mouse) (UniProt O35658)
T2 sequence (looked up): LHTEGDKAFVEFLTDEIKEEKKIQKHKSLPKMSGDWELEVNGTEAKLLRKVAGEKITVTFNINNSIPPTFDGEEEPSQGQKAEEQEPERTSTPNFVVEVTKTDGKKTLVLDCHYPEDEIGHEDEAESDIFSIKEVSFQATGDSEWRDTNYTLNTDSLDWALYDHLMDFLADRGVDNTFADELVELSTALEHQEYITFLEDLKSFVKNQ

[5] = target: Cend1_IPI:IPI00122826.1 (mouse) (UniProt Q9JKC6)
[6] = target: Dsg1c_IPI:IPI00331259.3 (mouse) (UniProt Q7TSF0)
[7] = target: Fabp5_IPI:IPI00114162.3 (mouse) (UniProt Q05816)
[8] = target: Gm561_IPI:IPI00344567.1 (mouse)
[9] = target: Hsdl1_IPI:IPI00225301.1 (mouse) (UniProt Q8BTX9)
[10] = target: Ndufa11_IPI:IPI00318645.6 (mouse) (UniProt Q9D8B4)
[11] = target: Sccpdh_IPI:IPI00153266.1 (mouse) (UniProt Q8R127)
[12] = target: Sfxn1_IPI:IPI00115454.3 (mouse) (UniProt Q99JR1)
[13] = target: T3, Sfxn5_IPI:IPI00221602.1 (mouse) (UniProt Q925N0)
T3 sequence (looked up): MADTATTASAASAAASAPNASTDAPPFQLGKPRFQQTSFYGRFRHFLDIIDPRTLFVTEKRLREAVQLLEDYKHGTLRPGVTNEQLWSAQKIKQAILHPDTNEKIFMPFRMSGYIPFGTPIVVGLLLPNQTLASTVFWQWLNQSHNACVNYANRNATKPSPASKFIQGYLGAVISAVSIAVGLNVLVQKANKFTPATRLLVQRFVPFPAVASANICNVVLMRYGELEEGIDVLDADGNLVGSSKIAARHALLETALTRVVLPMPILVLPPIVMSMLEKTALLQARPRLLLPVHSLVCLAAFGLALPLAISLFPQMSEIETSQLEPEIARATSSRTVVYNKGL

[14] = target: Slc25a27_IPI:IPI00108998.1 (mouse) (UniProt Q9D6D0)
[15] = target: Snap25_IPI:IPI00125635.1 (mouse) (UniProt P60879)
[16] = target: Suclg2_IPI:IPI00459487.3 (mouse) (UniProt Q9Z2I8)
[17] = target: T4, Syngr3_IPI:IPI00331579.1 (mouse) (UniProt Q8R191)
T4 sequence (looked up): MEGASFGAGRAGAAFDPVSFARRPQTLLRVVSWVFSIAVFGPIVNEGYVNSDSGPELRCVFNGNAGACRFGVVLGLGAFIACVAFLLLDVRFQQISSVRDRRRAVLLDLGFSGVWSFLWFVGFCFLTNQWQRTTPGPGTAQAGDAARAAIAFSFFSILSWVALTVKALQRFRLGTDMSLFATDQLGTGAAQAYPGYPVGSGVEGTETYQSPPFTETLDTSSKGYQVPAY

[18] = target: Synj2bp_IPI:IPI00109206.1 (mouse) (UniProt Q9D6K5)
[19] = target: Timm17b_IPI:IPI00129504.1 (mouse) (UniProt Q9Z0V7)
Timm17b_IPI:IPI00129504.1 (mouse), sequence (Q9Z0V7 whole entry): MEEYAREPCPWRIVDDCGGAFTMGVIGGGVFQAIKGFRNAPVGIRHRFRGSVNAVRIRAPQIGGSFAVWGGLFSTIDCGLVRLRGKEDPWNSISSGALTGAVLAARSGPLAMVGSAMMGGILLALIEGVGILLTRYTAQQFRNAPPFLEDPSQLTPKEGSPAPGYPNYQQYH

GST-Httex1-23Q, sequence (P08515 1-218, tags or fused parts left off): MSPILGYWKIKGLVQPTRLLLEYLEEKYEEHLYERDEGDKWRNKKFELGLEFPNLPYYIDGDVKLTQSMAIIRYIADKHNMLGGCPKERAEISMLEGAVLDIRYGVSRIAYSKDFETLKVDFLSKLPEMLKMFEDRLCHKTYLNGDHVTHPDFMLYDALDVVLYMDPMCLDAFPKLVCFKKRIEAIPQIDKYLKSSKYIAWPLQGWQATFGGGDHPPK
Cend1_IPI:IPI00122826.1 (mouse), sequence (Q9JKC6 whole entry): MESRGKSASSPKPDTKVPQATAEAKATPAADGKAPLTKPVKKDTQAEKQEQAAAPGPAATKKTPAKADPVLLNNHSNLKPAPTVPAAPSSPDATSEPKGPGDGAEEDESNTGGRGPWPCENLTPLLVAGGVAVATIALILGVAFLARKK
GST-Httex1-97Q, sequence (P08515 1-218, tags or fused parts left off): as the sequence (P08515 1-218, tags or fused parts left off) above
Suclg2_IPI:IPI00459487.3 (mouse), sequence (Q9Z2I8 39-433 limits assumed): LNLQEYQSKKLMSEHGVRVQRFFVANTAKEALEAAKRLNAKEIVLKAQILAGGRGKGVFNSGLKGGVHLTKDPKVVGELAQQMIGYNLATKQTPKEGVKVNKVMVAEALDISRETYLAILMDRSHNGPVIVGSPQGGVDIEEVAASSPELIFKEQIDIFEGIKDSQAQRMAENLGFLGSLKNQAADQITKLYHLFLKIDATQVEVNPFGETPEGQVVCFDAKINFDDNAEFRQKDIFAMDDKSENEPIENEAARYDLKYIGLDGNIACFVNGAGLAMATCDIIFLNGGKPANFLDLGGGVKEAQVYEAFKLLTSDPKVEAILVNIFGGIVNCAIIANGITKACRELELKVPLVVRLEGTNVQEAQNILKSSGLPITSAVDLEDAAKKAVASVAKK
Sccpdh_IPI:IPI00153266.1 (mouse), sequence (Q8R127 2-429 limits assumed): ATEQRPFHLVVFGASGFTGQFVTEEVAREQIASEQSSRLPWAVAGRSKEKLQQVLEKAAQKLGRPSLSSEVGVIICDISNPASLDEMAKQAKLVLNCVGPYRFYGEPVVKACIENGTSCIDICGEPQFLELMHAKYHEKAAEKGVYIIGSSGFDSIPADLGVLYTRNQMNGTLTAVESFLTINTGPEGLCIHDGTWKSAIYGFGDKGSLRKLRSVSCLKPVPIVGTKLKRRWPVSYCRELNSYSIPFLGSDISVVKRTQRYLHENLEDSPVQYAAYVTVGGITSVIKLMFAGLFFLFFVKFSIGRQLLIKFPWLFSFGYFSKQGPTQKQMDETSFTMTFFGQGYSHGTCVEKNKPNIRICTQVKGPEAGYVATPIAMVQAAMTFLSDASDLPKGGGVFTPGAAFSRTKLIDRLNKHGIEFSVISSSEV
Dsg1c_IPI:IPI00331259.3 (mouse), sequence (Q7TSF0 50-911 limits assumed): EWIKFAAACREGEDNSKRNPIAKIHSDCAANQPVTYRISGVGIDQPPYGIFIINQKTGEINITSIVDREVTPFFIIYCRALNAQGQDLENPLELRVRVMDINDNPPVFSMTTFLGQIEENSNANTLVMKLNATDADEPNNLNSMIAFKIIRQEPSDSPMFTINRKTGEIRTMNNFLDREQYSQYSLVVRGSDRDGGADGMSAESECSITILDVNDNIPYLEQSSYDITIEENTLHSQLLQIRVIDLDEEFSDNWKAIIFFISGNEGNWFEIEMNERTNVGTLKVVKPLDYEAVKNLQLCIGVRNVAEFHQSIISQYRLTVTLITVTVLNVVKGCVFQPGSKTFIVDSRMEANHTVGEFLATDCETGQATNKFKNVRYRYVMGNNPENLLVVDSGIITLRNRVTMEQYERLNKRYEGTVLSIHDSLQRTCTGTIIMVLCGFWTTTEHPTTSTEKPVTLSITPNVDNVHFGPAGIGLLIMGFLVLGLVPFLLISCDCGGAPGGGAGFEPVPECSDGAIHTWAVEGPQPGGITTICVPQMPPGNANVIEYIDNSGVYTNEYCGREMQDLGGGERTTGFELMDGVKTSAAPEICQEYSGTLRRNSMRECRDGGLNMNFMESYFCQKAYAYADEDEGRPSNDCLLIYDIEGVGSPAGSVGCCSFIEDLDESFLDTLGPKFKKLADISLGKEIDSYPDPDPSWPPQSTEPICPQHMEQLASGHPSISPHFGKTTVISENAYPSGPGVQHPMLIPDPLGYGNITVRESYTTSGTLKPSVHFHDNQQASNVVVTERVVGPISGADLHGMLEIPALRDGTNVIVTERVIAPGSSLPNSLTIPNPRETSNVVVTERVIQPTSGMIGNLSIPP
Slc25a27_IPI:IPI00108998.1 (mouse), sequence (Q9D6D0 whole entry): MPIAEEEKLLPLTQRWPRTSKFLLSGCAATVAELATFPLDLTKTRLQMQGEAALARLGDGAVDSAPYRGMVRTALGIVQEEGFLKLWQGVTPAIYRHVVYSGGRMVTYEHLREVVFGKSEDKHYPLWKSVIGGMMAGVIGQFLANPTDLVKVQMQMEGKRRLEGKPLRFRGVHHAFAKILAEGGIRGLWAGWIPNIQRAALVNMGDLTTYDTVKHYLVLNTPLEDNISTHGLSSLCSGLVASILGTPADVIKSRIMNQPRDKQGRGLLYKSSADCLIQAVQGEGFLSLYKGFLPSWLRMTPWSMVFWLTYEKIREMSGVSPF
Sfxn1_IPI:IPI00115454.3 (mouse), sequence (Q99JR1 2-322 limits assumed): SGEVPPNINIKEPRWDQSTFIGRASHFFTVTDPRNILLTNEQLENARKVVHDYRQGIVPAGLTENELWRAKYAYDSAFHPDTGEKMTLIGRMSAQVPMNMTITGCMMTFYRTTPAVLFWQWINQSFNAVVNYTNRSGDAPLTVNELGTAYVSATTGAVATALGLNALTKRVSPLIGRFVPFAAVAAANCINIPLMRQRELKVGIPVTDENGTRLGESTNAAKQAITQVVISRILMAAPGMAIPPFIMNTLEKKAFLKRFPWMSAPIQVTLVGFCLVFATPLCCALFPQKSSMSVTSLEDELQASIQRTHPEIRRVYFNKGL
Fabp5_IPI:IPI00114162.3 (mouse), sequence (Q05816 2-135 limits assumed): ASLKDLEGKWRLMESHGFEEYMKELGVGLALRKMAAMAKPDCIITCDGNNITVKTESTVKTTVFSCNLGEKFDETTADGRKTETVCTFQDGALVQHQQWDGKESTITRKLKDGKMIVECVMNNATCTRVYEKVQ
Hsdl1_IPI:IPI00225301.1 (mouse), sequence (Q8BTX9 2-330 limits assumed): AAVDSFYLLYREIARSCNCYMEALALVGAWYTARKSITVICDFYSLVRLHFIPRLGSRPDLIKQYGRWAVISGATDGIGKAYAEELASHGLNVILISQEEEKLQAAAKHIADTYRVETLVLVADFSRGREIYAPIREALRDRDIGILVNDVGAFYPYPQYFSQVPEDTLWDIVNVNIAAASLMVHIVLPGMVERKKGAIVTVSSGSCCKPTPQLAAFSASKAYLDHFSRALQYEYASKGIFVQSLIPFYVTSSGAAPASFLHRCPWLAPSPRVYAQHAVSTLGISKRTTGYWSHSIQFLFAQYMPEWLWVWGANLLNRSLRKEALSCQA
Ndufa11_IPI:IPI00318645.6 (mouse), sequence (Q9D8B4 whole entry): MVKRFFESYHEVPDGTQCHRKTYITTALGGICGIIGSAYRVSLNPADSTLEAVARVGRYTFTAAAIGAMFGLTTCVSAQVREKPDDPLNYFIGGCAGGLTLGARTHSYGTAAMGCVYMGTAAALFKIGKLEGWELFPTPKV
Snap25_IPI:IPI00125635.1 (mouse), sequence (P60879 whole entry): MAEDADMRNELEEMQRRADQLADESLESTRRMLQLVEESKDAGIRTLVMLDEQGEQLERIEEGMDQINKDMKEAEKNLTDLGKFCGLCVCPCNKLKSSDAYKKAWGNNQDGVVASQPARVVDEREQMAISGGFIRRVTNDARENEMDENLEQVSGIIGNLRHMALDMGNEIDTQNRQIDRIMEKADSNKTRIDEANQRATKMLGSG
Synj2bp_IPI:IPI00109206.1 (mouse), sequence (Q9D6K5 whole entry): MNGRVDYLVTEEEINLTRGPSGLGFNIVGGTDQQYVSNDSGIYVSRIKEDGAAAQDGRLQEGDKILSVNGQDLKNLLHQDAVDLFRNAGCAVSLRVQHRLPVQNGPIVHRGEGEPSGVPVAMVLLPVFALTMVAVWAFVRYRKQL

No. of total peptides [1]: 2 peptides
No. of unique peptides [1]: 2 peptides
No. of total peptides [2]: 1 peptides
No. of unique peptides [2]: 1 peptides
No. of total peptides [3]: 3 peptides
No. of unique peptides [3]: 3 peptides
No. of total peptides [4]: 3 peptides
No. of unique peptides [4]: 2 peptides
No. of total peptides [5]: 5 peptides
No. of unique peptides [5]: 4 peptides
No. of total peptides [6]: 1 peptides
No. of unique peptides [6]: 1 peptides
No. of total peptides [7]: 1 peptides
No. of unique peptides [7]: 1 peptides
No. of total peptides [8]: 2 peptides
No. of unique peptides [8]: 2 peptides
No. of total peptides [9]: 2 peptides
No. of unique peptides [9]: 2 peptides
No. of total peptides [10]: 1 peptides
No. of unique peptides [10]: 1 peptides
No. of total peptides [11]: 1 peptides
No. of unique peptides [11]: 1 peptides
No. of total peptides [12]: 2 peptides
No. of unique peptides [12]: 2 peptides
No. of total peptides [13]: 6 peptides
No. of unique peptides [13]: 5 peptides
No. of total peptides [14]: 2 peptides
No. of unique peptides [14]: 2 peptides
No. of total peptides [15]: 1 peptides
No. of unique peptides [15]: 1 peptides
No. of total peptides [16]: 2 peptides
No. of unique peptides [16]: 2 peptides
No. of total peptides [17]: 2 peptides
No. of unique peptides [17]: 2 peptides
No. of total peptides [18]: 1 peptides
No. of unique peptides [18]: 1 peptides
No. of total peptides [19]: 1 peptides
No. of unique peptides [19]: 1 peptides
Substance: GST-Httex1-97Q (from UniProt P08515 1-218; P42858 1-88)

Substance: GST-Httex1-23Q (from UniProt P08515 1-218; P42858 1-88)
No. of total peptides [1]: 2 peptides
No. of unique peptides [1]: 2 peptides
No. of total peptides [3]: 2 peptides
No. of unique peptides [3]: 2 peptides
No. of total peptides [4]: 6 peptides
No. of unique peptides [4]: 3 peptides
No. of total peptides [5]: 3 peptides
No. of unique peptides [5]: 3 peptides
No. of total peptides [13]: 3 peptides
No. of unique peptides [13]: 3 peptides
No. of total peptides [17]: 1 peptides
No. of unique peptides [17]: 1 peptides
No. of total peptides [19]: 3 peptides
No. of unique peptides [19]: 3 peptides
